Measured values: patent US20240092897A1 (SHANGHAI JMT BIO TECHNOLOGY, published 2024)

T1: Human Siglec-15, His Tag (human Siglec-15 full-length extracellular domain linked with His tag) (human, UniProt Q6ZMC9 20-263)
T1 construct: Bought from ACROBiosystems; also called Siglec-15 protein; SG5-H52H3
T1 sequence: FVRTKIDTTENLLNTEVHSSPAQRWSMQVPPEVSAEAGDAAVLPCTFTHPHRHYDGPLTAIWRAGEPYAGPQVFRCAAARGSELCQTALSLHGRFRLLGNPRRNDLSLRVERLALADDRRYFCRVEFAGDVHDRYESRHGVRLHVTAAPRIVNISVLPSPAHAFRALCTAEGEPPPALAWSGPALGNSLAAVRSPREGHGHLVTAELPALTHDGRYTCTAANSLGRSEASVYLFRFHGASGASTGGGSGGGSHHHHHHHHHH

T2: Mouse Siglec-15 full-length extracellular domain linked with His tag (mouse)
T2 construct: Bought from ACROBiosystems; also called SG5-M52H7
T2 chain: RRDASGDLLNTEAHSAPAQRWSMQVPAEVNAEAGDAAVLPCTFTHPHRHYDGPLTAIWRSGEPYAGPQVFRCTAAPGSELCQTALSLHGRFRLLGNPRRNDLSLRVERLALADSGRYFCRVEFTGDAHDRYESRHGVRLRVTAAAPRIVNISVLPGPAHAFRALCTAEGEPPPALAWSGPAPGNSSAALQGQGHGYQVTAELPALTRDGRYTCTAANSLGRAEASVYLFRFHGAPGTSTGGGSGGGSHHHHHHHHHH

T3: Cynomolgus Monkey Siglec-15 full-length extracellular domain linked with His tag (Cynomolgus Monkey)
T3 construct: Bought from ACROBiosystems; also called SG5-052H6
T3 chain: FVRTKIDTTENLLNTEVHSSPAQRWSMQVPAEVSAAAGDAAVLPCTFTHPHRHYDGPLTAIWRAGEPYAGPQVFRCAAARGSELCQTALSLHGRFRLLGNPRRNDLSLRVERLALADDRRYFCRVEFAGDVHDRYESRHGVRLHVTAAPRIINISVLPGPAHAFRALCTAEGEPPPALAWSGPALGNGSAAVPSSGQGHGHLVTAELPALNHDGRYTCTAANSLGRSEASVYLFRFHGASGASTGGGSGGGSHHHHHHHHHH

T4: Human Siglec-15 overexpressed on HEK293T cells (HEK293T-hu-S15) (human, UniProt Q6ZMC9 20-328)
T4 construct: whole, on cells; also called HEK293T-hu-S15 cell line
T4 sequence (looked up): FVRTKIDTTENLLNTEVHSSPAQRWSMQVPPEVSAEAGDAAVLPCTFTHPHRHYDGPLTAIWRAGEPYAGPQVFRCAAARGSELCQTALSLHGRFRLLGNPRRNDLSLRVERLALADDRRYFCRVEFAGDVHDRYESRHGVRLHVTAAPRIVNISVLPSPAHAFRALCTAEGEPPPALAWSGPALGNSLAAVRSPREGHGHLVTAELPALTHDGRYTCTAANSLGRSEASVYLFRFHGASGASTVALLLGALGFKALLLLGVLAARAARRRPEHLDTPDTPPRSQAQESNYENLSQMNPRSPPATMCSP

B1: 174C11C9 chimeric antibody (antibody, human IgG1, V domains shown)
VH: EVQLQQSGPVLVKPGASVKMSCEASGYIFTDYYMNWVKQSPGKSLEWIGVFNPYSGGISYNQKFKGKATLTVDTSSSTAYMELNSLTSEDSAVYYCARDYYYLSSHGFYALDYWGQGTSVTVSS
VL: DIVLTQSPASLAVSLGQRATISCRASESVDSYGNSFIHWYQQRPGRPPKLLMYRASNLESGIPARFSGSGSRTDFTLTIDPVEADDVATYYCQQSNEDPLTFGAGTKLELK
notes: also called 174C11C9-mHL
B2: 124B11F6 chimeric antibody (antibody, human IgG1, V domains shown)
VH: EVQLQQSGAELVRPGASVKLSCTASVFNIKDYYMHWVKQRTEQGLEWIGRIDPEDDKTKYAPKFQGKATITADTSSNTAYLHLSTLTSEDTAVYYCVRGWLGYIMDFWGQGTSVTVSS
VL: QLVLTQSSSASFSLGASAKLTCTLSSQHSTYTIDWYQQQPLKPPKYVMELKEDGSHSTGDGIPDRFSGSSSGADRYLGISNIQPEDEAVYICGVGATIKEQFVYVFGGGTKVTVL
notes: also called 124B11F6-mHL
B3: 255C12B10 chimeric antibody (antibody, V domains shown)
VH: EVQLQQSGPELVKPGASVKMSCKASGYTFTGYNMNWVKQSHGKSLEWIGYINPNNGGTRYNQKFKGKATLTINKSSSTAYMELRSLTSEDSAVYYCARDYGIDYWGQGTTLTVSS
VL: EIQMTQSPSSMSASLGDRITITCQATQDIVKNLNWYQQKPGKPPSFLIYYATELAEGVPSRFSGSGSGSDYSLTISNLESEDFADYYCLQFYEFPYTFGGGTKLEIK
notes: Mouse variable regions combined with human IgG1 (N297A) constant regions
B4: 75E1F2 chimeric antibody (antibody, V domains shown)
VH: EVQLVESGGGSVKPGGSLKLSCAASGFTFSDYGMHWVRQAPEKGLEWITYISSGSSIIDYSDTVKGRFTISRDNAKDTLFLQMTSLRSEDTAIYYCVRREDHYAMDYWGQGTSVTVSS
VL: DIVMTQSHKFLSTSVGDRVSITCKASQDVYTAVAWFQQKPGQSPKLLFYSASYRFTGVPDRFNGSGSGTDFTLTITSMQAEDLAVYYCQQHYSTPWTFGGGTKLEIK
notes: as for B3

These binders were tested against T1, Human Siglec-15, His Tag (human …) (assay: ELISA, coated antigen).
Procedure: (§1) The variable regions from the antibodies produced by the hybridomas were combined with human IgG1 (N297A) constant regions to generate chimeric antibodies, named as 21F6C6, 75E1F2, 124B11F6, 174C11C9, and 255C12B10, respectively. Binding activity assays were performed on the chimeric antibodies using Siglec-15 proteins from different species, in which human, mouse and Cynomolgus Monkey Siglec-15 proteins were purchased from ACROBiosystems (Beijing, China). Antigen was coated at 0.5 μg/ml, and antibodies were diluted starting from 1 μg/ml and incubated with antigen. Horseradish peroxidase-labeled Anti-Human IgG antibody was used as the secondary antibody and OD₄₅₀ values were read after adding the substrate.

EC50 | Binder
0.00522 µg/mL | B1
0.0216 µg/mL | B2
0.00562 µg/mL | B3
0.0186 µg/mL | B4

Target: T2, Mouse Siglec-15 full-length …
Test: ELISA, coated antigen
Procedure: as §1

EC50 | Binder
0.00985 µg/mL | B1
0.0212 µg/mL | B2
0.0228 µg/mL | B3

Target: T3, Cynomolgus Monkey Siglec-15 full-length …
Test: ELISA, coated antigen
Procedure: as §1

EC50 | Binder
0.00748 µg/mL | B1
0.016 µg/mL | B2
0.00546 µg/mL | B3
0.0122 µg/mL | B4

What follows are binders tested against T1, Human Siglec-15, His Tag (human …) (assay: Octet BLI epitope binning, Siglec-15 His on HIS1K sensor; competitor 21F6C6).
Procedure: (§2) Epitope binning assays were performed using the Octet RED96e (ForteBio) System for the antibodies tested. Human Siglec-15, His Tag (Cat. No. SG5-H52H3) (5 μg/mL) was captured by the HIS1K biosensor and bound to primary antibody (100 nM) for 180 s. Then, the Human Siglec-15, His Tag (antigen)-primary antibody was bound to secondary antibody (100 nM) on the biosensors for 90 s. Data analysis was performed using Octet RED96e (ForteBio) analysis software.

cross-competition score | Binder
7.68% | B1
108% | B2
20.4% | B3
23.3% | B4

Each binder was assayed against T1, Human Siglec-15, His Tag (human …) (assay: Octet BLI epitope binning, Siglec-15 His on HIS1K sensor; competitor 75E1F2).
Procedure: as §2

cross-competition score | Binder
4.2% | B1
22.7% | B2
11.4% | B3

The binders below were run against T1, Human Siglec-15, His Tag (human …) (assay: SPR Biacore 8K, antibody captured by anti-human Fc, Siglec-15 His as analyte).
Procedure: Affinity analysis was performed using Biacore8K, and a CM5 chip immobilized with anti-human Fc antibody was used to capture the antibodies tested. The stock solutions of the antibodies to be tested were diluted to 5 μg/mL, and injected sequentially into the experimental channels at a flow rate of 10 μL/min at about 500 RU. The analyte was Human Siglec-15, His Tag (Cat. #SG5-H52H3), the diluted human Siglec-15 protein was injected sequentially into the experimental channels and the control channel at a flow rate of 30 μL/min and allowing for a binding time of 150 s and a dissociation time of 700 s. The KD value of each antibody was calculated using Biacore 8K analysis software.

Kd | koff | kon | Binder
0.305 nM | 0.00037 s⁻¹ | 1.21e+06 M⁻¹ s⁻¹ | B1
0.00143 nM | 1.46e-07 s⁻¹ | 102000 M⁻¹ s⁻¹ | B2
0.536 nM | 0.000158 s⁻¹ | 296000 M⁻¹ s⁻¹ | B3
0.93 nM | 0.000782 s⁻¹ | 841000 M⁻¹ s⁻¹ | B4

These binders were tested against T1, Human Siglec-15, His Tag (human …) (assay: Octet BLI epitope binning, Siglec-15 His on HIS1K sensor; competitor 124B11F6).
Procedure: as §2

cross-competition score | Binder
73.4% | B1
18.9% | B3
25.6% | B4

The binders below were run against T1, Human Siglec-15, His Tag (human …) (assay: Octet BLI epitope binning, Siglec-15 His on HIS1K sensor; competitor 174C11C9).
Procedure: as §2

cross-competition score | Binder
79.5% | B2
18.3% | B3
23% | B4

The binders below were run against T1, Human Siglec-15, His Tag (human …) (assay: Octet BLI epitope binning, Siglec-15 His on HIS1K sensor; competitor 255C12B10).
Procedure: as §2

cross-competition score | Binder
52.4% | B1
44.9% | B2
69.2% | B4

Each binder was assayed against T1, Human Siglec-15, His Tag (human …) (assay: SPR Biacore, antibody captured by anti-human Fc on CM5, Siglec-15 protein as analyte).

Kd | koff | kon | Binder
0.175 nM | 0.000305 s⁻¹ | 1.74e+06 M⁻¹ s⁻¹ | B1
0.0834 nM | 0.000114 s⁻¹ | 1.37e+06 M⁻¹ s⁻¹ | B2

What follows are binders tested against T4, Human Siglec-15 overexpressed on … (assay: flow cytometry on HEK293T-hu-S15 cells, detection with anti-human IgG (Fc specific)-FITC, average fluorescence intensity).
Procedure: HEK293T cell line overexpressing Siglec-15 (HEK293T-hu-S15) was purchased from KYinno Biotechnology Co., Ltd (Beijing, China) under Catalog #KC-1314. Purified anti-Siglec-15 chimeric antibodies were diluted at a gradient of 100 nM and incubated with HEK293T-hu-S15 cells at 4° C. for 30 min. Flow cytometry was performed after addition of anti-human IgG (Fc specific)-FITC (cat. #F9512) and incubation for 30 min.

EC50 | Binder
1.59 nM | B1
9.44 nM | B2
3.77 nM | B3
1.88 nM | B4
